In assay [1] the test system is neutrophils. Put plainly: Annexin-V staining / FACS analysis of neutrophil apoptosis in vitro. The class given is cell-based, human. How it is done: (§1) To assess viability of neutrophils in-vitro, peripheral blood from healthy donors was erythrocyte-lyzed and neutrophils or peripheral blood mononuclear cells (PBMCs) were isolated. Cultures in RPMI10%FCS were performed in 96 well microtiter plates (5×10^5cells/well) unless otherwise stated. The percentage of apoptotic neutrophils or PBMCs was assessed based on binding of fluorescent Annexin V-protein binding or measuring of CD11b or CD16 surface expression by FACS (fluorescent activated cell sorter) analysis.
(§2) Cells were incubated for 24 or 48 hours with MDPK67b at concentrations ranging from 6 μM to 60 μM, as indicated, or PBS as control. Apoptosis was assessed by Annexin V staining and FACS analysis. Indicated leukocyte populations were gated based on their appearance in a forward scatter/sideward scatter FACS dot plot (neutrophils) or by positive staining for CD3 (T cells).
Neutrophils were incubated for 18 hours with MDPK67b or MDOKG9 concentrations ranging from 60 μM (dilution 1) to […] as indicated. Apoptosis was assessed as outlined above.
Neutrophils were cultured with the indicated concentrations of MDPK67b. PBS without MDPK67b served as a control. Neutrophils were plated (100 μl/well) either at 5×10^6/ml (high density) or 3×10^5/ml (low density) and neutrophil apoptosis was assessed by AnnexinV staining and FACS analysis. Culturing of 5×10^6/ml neutrophils in serum free medium (X-Vivo 15) instead of RPMI10% FCS was assessed in parallel.
(§3) Neutrophils were cultured with the indicated concentrations of MDPK67b in presence or absence of the Src tyrosine kinase inhibitor PP2 (final concentration 10 μM). Apoptosis and relative frequencies of CD11b and CD16 high expressing neutrophils were measured by FACS analysis.
Neutrophils were cultured with the indicated concentrations of G-CSF and neutrophil Apoptosis (FIG. 6A) and down-regulation of CD 16 expression (FIG. 6B) were analyzed by FACS. FIG. 6C: Neutrophils were cultured with MDPK67b (0.6 μM) and titrated amounts of G-CSF (concentrations as indicated). Neutrophils cultured in medium and PBS (without MDPK67b) served as a control.
Cells were incubated during 18 hours with MDPK67b (6 μM) plus Etoposid (125 μg/ml), Etoposid alone or PBS. Apoptosis was assessed by Annexin V staining and FACS analysis. Relevant leukocyte populations were gated based on their appearance in a forward scatter or sideward scatter FACS dot plot.
Cells were incubated for 18 hours with MDPK67b (0.06 μM) alone or MDPK67b (0.06 μM) plus increasing concentrations of Etopsid (in μg/ml) as indicated or PBS. Apoptosis was assessed by Annexin V staining and FACS analysis was performed as mentioned above.

Assay [2] concerns neutrophils. Put plainly: CD16 / CD11b surface expression of cultured neutrophils by FACS. The class given is cell-based, human. How it is done: as §1
Neutrophils were cultured with the indicated concentrations of MDPK67b and percentage of neutrophils expressing high levels of CD16 or CD11b was assessed by FACS. Representative FACS plots are shown.
as §3

The next assay relates to T cells. Put plainly: Annexin-V staining / FACS analysis of T cells (CD3 positive). The class given is cell-based, human. The note with it: 24 or 48 hours. The method, then: as §1, §2
On the technique in general: Flow cytometry measures light scatter and fluorescence of single cells or particles in a stream.

For a further assay, the system named is monocytes or lymphocytes. The experiment in a line: Annexin-V staining / FACS analysis of monocytes or lymphocytes (PBMCs). The class given is cell-based, human. The method, then: as §1, §2
The subject of assay [3] is neutrophils. Put plainly: Annexin-V staining / FACS analysis of neutrophil apoptosis in vitro. The class given is cell-based, human. The settings on record: doses ranging from 60 μM down to 0.6 μM; 18, 24 or 48 hours; PBS control.
Another assay addresses hK2 (Homo sapiens, UniProt P20151). The experiment in a line: Inhibition of kallikrein hK2 by chimeric serpin. The class given is biochemical. An excerpt:
These chimeric inhibitor proteins have been obtained by modifying the RSL of α1-antichymotrypsin (rACT), which is known to inhibit a large panel of human enzymes such as chymotrypsin, mast cell chymase , cathepsin G , prostatic kallikreins hK2 and PSA (hK3), in order to change the specificity of this serpin. Peptide sequences, selected as substrates for the enzyme hK2 by phage display technology as explained in International Patent Application PCT/IB2004/001040, have been used to replace the scissile bond and neighbor amino acid residues of the RSL. Recombinant inhibitors were produced in bacteria and purified by affinity chromatography.

In another assay the target is hK3 (Homo sapiens, UniProt P07288). Put plainly: Inhibition of kallikrein hK3 by chimeric serpin. The class given is biochemical.
Chain of hK3 (P07288 25-261): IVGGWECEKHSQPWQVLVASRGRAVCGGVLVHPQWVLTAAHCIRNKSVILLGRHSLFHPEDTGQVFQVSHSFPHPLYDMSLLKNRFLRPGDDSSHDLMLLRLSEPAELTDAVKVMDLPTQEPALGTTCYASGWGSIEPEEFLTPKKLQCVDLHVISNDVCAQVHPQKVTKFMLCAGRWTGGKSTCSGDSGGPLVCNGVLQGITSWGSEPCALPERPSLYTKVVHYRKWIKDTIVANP
Setting [4] is: neutrophils cultured with MDPK67b plus kinase inhibitor (PP2 final concentration 10 μM).

Chain of hK2 (P20151 25-261): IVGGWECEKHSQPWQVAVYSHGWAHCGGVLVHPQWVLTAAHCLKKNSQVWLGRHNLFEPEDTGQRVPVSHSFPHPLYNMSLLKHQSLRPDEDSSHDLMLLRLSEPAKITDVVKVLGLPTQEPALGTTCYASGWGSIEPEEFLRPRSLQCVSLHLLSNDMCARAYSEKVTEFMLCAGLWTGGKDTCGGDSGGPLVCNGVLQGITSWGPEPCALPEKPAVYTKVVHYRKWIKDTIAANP

For the molecule `COc1cc([C@@H]2c3cc4c(cc3[C@@H](O[C@@H]3O[C@@H]5CO[C@@H](C)O[C@H]5[C@H](O)[C@H]3O)[C@H]3COC(=O)[C@H]23)OCO4)cc(OC)c1O` [Etoposid, reference compound], in the assay on neutrophils [1] (Etoposid up to 125 μg/ml, 18 hours), the “block of the apoptosis reducing effect of MDPK67b” value is given as “only partially block”.

For `CC(C)(C)n1nc(-c2ccc(Cl)cc2)c2c(N)ncnc21` [PP2, reference compound], the “reversal of the decreased apoptosis in the presence of MDPK67b by kinase inhibitor” value with neutrophils [1] (setting [4]) is recorded as “can be reversed”. Also, the “reversal of the increased frequency of CD11b high expressing neutrophils in the presence of MDPK67b by kinase inhibitor” value in the assay with neutrophils [2] (setting [4]) was “can be reversed”.

B1: MDPK67b: chimeric inhibitor protein specific for hK2, modified RSL of α1-antichymotrypsin; amino acid sequence SEQ ID NO 16 (protein)
chain: MHPNSPLDEENLTQENQDRGTHVDLGLASANVDFAFSLYKQLVLKAPDKNVIFSPLSISTALAFLSLGAHNTTLTEILKGLKFNLTETSEAEIHQSFQHLLRTLNQSSDELQLSMGNAMFVKEQLSLLDRFTEDAKRLYGSEAFATDFQDSAAAKKLINDYVKNGTRGKITDLIKDLDSQTMMVLVNYIFFKAKWEMPFDPQDTHQSRFYLSKKKWVMVPMMSLHHLTIPYFRDEELSCTVVELKYTGNASALFILPDQDKMEEVEAMLLPETLKRWRDSLEFREIGELYLPKFSISRDYNLNDILLQLGIEEAFTSKADLSGITGARNLAVSQVVHKAVLDVFEEGTEASAATAVKIKLRTTLVETRTIVRFNRPFLMIIVPTDTQNIFFMSKVTNPKQA
Consider B1, for which the “protection of neutrophils from apoptosis compared to G-CSF” value with neutrophils [1] was “Superior Effect”. Moreover, the “apoptosis of neutrophils under various culture conditions” value in the assay on neutrophils [1] (5×10^6/ml (high density) or 3×10^5/ml (low density), RPMI10% FCS or serum free medium (X-Vivo 15)) was “inhibits apoptosis of neutrophils in vitro independently of cell density and presence or absence of serum”. The “cytostatic drug-induced apoptosis of neutrophils” value in the assay with neutrophils [1] (18 hours, MDPK67b (6 μM or 0.06 μM) plus Etoposid) is “Reduces Cytostatic Drug-induced Apoptosis of Neutrophils”. The “effect of MDPK67b on neutrophil apoptosis in presence of G-CSF” value in the assay with neutrophils [1] (MDPK67b (0.6 μM) and titrated amounts of G-CSF) is reported as “not affected by G-CSF”. Also, the “T-cell survival (Annexin V staining)” value in the assay with T cells was “No Significant Effect on T-cell Survival”. Further, the “apoptosis of monocytes or lymphocytes” value in the assay with monocytes or lymphocytes is reported as “did not inhibit apoptosis of monocytes or lymphocytes”. The “frequency of neutrophils that express CD16 and CD11b at high levels” value with neutrophils [2] (indicated concentrations of MDPK67b) is listed as “increases dose-dependently”. In the assay with neutrophils [3], the “apoptosis of neutrophils (Annexin V staining)” value is listed as “inhibit apoptosis of neutrophils”.

B2: G-CSF (protein, UniProt P09919 31-207, looked up)
Granulocyte …: TPLGPASSLPQSFLLKCLEQVRKIQGDGAALQEKLVSECATYKLCHPEELVLLGHSLGIPWAPLSSCPSQALQLAGCLSQLHSGLFLYQGLLQALEGISPELGPTLDTLQLDVADFATTIWQQMEELGMAPALQPTQGAMPAFASAFQRRAGGVLVASHLQSFLEVSYRVLRHLAQP
notes: present agent used for the treatment of neutropenia
As to B2, the “effect on neutrophil apoptosis, alone” value in the assay with neutrophils [1] (G-CSF alone, indicated concentrations) is “only a mild protecting effect”.

B3: MDCI: chimeric inhibitor: P3-P3′ of rACTWT RSL replaced by RSL of Protein C inhibitor; SEQ ID No 14 (protein)
chain: MRGSHHHHHHSRHPNSPLDEENLTQENQDRGTHVDLGLASANVDFAFSLYKQLVLKAPDKNVIFSPLSISTALAFLSLGAHNTTLTEILKGLKFNLTETSEAEIHQSFQHLLRTLNQSSDELQLSMGNAMFVKEQLSLLDRFTEDAKRLYGSEAFATDFQDSAAAKKLINDYVKNGTRGKITDLIKDLDSQTMMVLVNYIFFKAKWEMPFDPQDTHQSRFYLSKKKWVMVPMMSLHHLTIPYFRDEELSCTVVELKYTGNASALFILPDQDKMEEVEAMLLPETLKRWRDSLEFREIGELYLPKFSISRDYNLNDILLQLGIEEAFTSKADLSGITGARNLAVSQVVHKAVLDVFEEGTEASAATAVKITFRSALVETRTIVRFNRPFLMIIVPTDTQNIFFMSKVTNPKQA
As for B3, the “inhibition of kallikrein hK2” value with hK2 is given as “able to inhibit”. Also, the “inhibition of kallikrein hK3” value with hK3 is listed as “able to inhibit”.
